This passage reports EC50 results from patent publication US20240360223A1 (DRAGONFLY THERAPEUTICS, published 2024).

Assay [1] has as its target T1, human BAFF-R expressed on cells (human, UniProt Q96RJ3 1-184).
T1 construct: Cell surface BAFF-R, endogenous on B cell lines and primary B cells or overexpressed on isogenic CHO cells; also called hBAFF-R; hBAFF-R-CHO
The assay is described as follows: flow cytometry, human BAFF-R CHO cells. (In flow cytometry, cells or beads pass a laser one at a time.)

The target of assay [2] is T2, cynomolgus monkey BAFF-R expressed on cells (cynomolgus monkey).
T2 construct: whole, on cells; also called cBAFF-R; cynoBAFF-R
Briefly: flow cytometry, cyno BAFF-R CHO cells.

In assay [3] the target is T1, human BAFF-R expressed on cells. Briefly: flow cytometry, RAJI cells. On the procedure:
The BAFF-R positive human B lymphoblastoid RAJI cell line was used to assess TriNKET binding to cell surface BAFF-R. Certain BAFF-R TriNKETs in the 2-Fab and F3′ formats, as described in the “exemplary multispecific binding proteins” subsection above, were diluted and incubated with Raji cells. Binding patterns of TriNKETs and parental monoclonal antibodies were detected using a fluorophore conjugated anti-human IgG secondary antibody. The cells were then incubated with a fluorophore conjugated anti-human IgG secondary antibody and were analyzed by flow cytometry. The mean fluorescence intensity (MFI) values were normalized to secondary antibody only controls to obtain fold over background (FOB) values.

Usually EC50 stands for the midpoint of the concentration-response curve.

B1: AB0681 (bispecific antibody, V domains shown)
VH: EVQLVQSGGGVVQPGRSLRLSCAASGEWFSSYGMHWVRQAPGKCLEWVAVIWYDGSNKYYGDSVKGRFTISRDNSKNTLYLQMNSLRDEDTAVYYCARRFTHLRGWIIEDYGMDVWGQGTTVTVSS
VL: not shown
notes: also called AB0681-001
Take B1: the EC50 in assay [1] amounted to 5.1 nM; in assay [2], 5.6 nM.

B2: Hu9.1-73-mAb (antibody, V domains shown)
VH: EVQLVESGGGLVQPGGSLRLSCAASGLPMAGFYTSWVRQAPGKGLEWVGFIRDKANGYTTEYNPSVKGRFTISADTSKNTAYLQMNSLRAEDTAVYYCAQVRRALDYWGQGTLVTVSS
VL: DIQMTQSPSSLSASVGDRVTITCKSSQSLLYSSNQNNYLAWYQQKPGKAPKLLIYWAQHLDSGVPSRFSGSGSGTDFTLTISSLQPEDFATYYCQQYYTYPYTFGQGTKVEIK
notes: Parental monoclonal antibody; also called Genentech Hu9.1-73 parental mAb
Take B2: in assay [3], the EC50 was found to be 0.379 nM.

B3: Ianalumab-F3′ (bispecific antibody, human IgG1, kappa)
chain: DIVLTQSPATLSLSPGERATLSCRASQFILPEYLSWYQQKPGQAPRLLIYGSSSRATGVPARFSGSGSGTDFTLTISSLEPEDFAVYYCQQFYSSPLTFGCGTKVEIKGGGGSGGGGSGGGGSGGGGSQVQLQQSGPGLVKPSQTLSLTCAISGDSVSSNSAAWGWIRQSPGRCLEWLGRIYYRSKWYNSYAVSVKSRITINPDTSKNQFSLQLNSVTPEDTAVYYCARYQWVPKIGVFDSWGQGTLVTVSSASDKTHTCPPCPAPELLGGPSVFLFPPKPKDTLMISRTPEVTCVVVDVSHEDPEVKFNWYVDGVEVHNAKTKPREEQYNSTYRVVSVLTVLHQDWLNGKEYKCKVSNKALPAPIEKTISKAKGQPREPRVYTLPPCRDELTKNQVSLTCLVKGFYPSDIAVEWESNGQPENNYKTTPPVLVSDGSFTLYSKLTVDKSRWQQGNVFSCSVMHEALHNHYTQKSLSLSPG
heavy: EVQLVESGGGLVKPGGSLRLSCAASGFTFSSYSMNWVRQAPGKGLEWVSSISSSSSYIYYADSVKGRFTISRDNAKNSLYLQMNSLRAEDTAVYYCARGAPIGAAAGWFDPWGQGTLVTVSSASTKGPSVFPLAPSSKSTSGGTAALGCLVKDYFPEPVTVSWNSGALTSGVHTFPAVLQSSGLYSLSSVVTVPSSSLGTQTYICNVNHKPSNTKVDKKVEPKSCDKTHTCPPCPAPELLGGPSVFLFPPKPKDTLMISRTPEVTCVVVDVSHEDPEVKFNWYVDGVEVHNAKTKPREEQYNSTYRVVSVLTVLHQDWLNGKEYKCKVSNKALPAPIEKTISKAKGQPREPQVCTLPPSRDELTENQVSLTCLVKGFYPSDIAVEWESNGQPENNYKTTPPVLDSDGSFFLYSWLTVDKSRWQQGNVFSCSVMHEALHNHYTQKSLSLSPG
light: DIQMTQSPSSVSASVGDRVTITCRASQGISSWLAWYQQKPGKAPKLLIYAASSLQSGVPSRFSGSGSGTDFTLTISSLQPEDFATYYCQQGVSFPRTFGGGTKVEIKRTVAAPSVFIFPPSDEQLKSGTASVVCLLNNFYPREAKVQWKVDNALQSGNSQESVTEQDSKDSTYSLSSTLTLSKADYEKHKVYACEVTHQGLSSPVTKSFNRGEC
notes: F3′ TriNKET: BAFF-R scFv-Fc (chain S), NKG2D Fab heavy (chain H) and light (chain L); no ADCC-enhancing mutations; also called ianalumab-F3′ TriNKET; Tool-F3′
For the molecule B3, the figures for the EC50 in assay [1], in assay [2] and in assay [3] were 4.3 nM, 2.9 nM and 0.361 nM, respectively.

B4: hCOH-2-2-Fab (bispecific antibody, human IgG1, kappa)
heavy 1: not shown
light 1: DIVLTQSPATLSLSPGERATLSCRASESVDNYGISFMNWFQQKPGQAPRLLIYAASNRATGIPARFSGSGSGTDFTLTISSLEPEDFAVYYCQQSKEVPWTFGGGTKVEIKRTVAAPSVFIFPPSDEQLKSGTASVVCLLNNFYPREAKVQWKVDNALQSGNSQESVTEQDSKDSTYSLSSTLTLSKADYEKHKVYACEVTHQGLSSPVTKSFNRGEC
heavy 2: not shown
light 2: DIQMTQSPSSVSASVGDRVTITCRASQGISSWLAWYQQKPGKAPKLLIYAASSLQSGVPSRFSGSGSGTDFTLTISSLQPEDFATYYCQQGVSFPRTFGGGTKVEIKRTVAAPSVFIFPPSDEQLKSGTASVVCLLNNFYPREAKVQWKVDNALQSGNSQESVTEQDSKDSTYSLSSTLTLSKADYEKHKVYACEVTHQGLSSPVTKSFNRGEC
notes: 2-Fab TriNKET
With B4, the midpoint of the response in assay [3], the EC50, lay at 0.942 nM.

B5: Ianalumab-2-Fab (bispecific antibody, human IgG1, kappa)
heavy 1: not shown
light 1: DIVLTQSPATLSLSPGERATLSCRASQFILPEYLSWYQQKPGQAPRLLIYGSSSRATGVPARFSGSGSGTDFTLTISSLEPEDFAVYYCQQFYSSPLTFGQGTKVEIKRTVAAPSVFIFPPSDEQLKSGTASVVCLLNNFYPREAKVQWKVDNALQSGNSQESVTEQDSKDSTYSLSSTLTLSKADYEKHKVYACEVTHQGLSSPVTKSFNRGEC
heavy 2: not shown
light 2: DIQMTQSPSSVSASVGDRVTITCRASQGISSWLAWYQQKPGKAPKLLIYAASSLQSGVPSRFSGSGSGTDFTLTISSLQPEDFATYYCQQGVSFPRTFGGGTKVEIKRTVAAPSVFIFPPSDEQLKSGTASVVCLLNNFYPREAKVQWKVDNALQSGNSQESVTEQDSKDSTYSLSSTLTLSKADYEKHKVYACEVTHQGLSSPVTKSFNRGEC
notes: 2-Fab TriNKET: BAFF-R Fab arm and NKG2D (A49MI) Fab arm, F405L/K409R Fc
Regarding B5, in assay [3], the 50% effective concentration (EC50) was 0.115 nM.

B6: Hu9.1-73-2-Fab (bispecific antibody, human IgG1, kappa)
heavy 1: not shown
light 1: DIQMTQSPSSLSASVGDRVTITCKSSQSLLYSSNQNNYLAWYQQKPGKAPKLLIYWAQHLDSGVPSRFSGSGSGTDFTLTISSLQPEDFATYYCQQYYTYPYTFGQGTKVEIKRTVAAPSVFIFPPSDEQLKSGTASVVCLLNNFYPREAKVQWKVDNALQSGNSQESVTEQDSKDSTYSLSSTLTLSKADYEKHKVYACEVTHQGLSSPVTKSFNRGEC
heavy 2: not shown
light 2: DIQMTQSPSSVSASVGDRVTITCRASQGISSWLAWYQQKPGKAPKLLIYAASSLQSGVPSRFSGSGSGTDFTLTISSLQPEDFATYYCQQGVSFPRTFGGGTKVEIKRTVAAPSVFIFPPSDEQLKSGTASVVCLLNNFYPREAKVQWKVDNALQSGNSQESVTEQDSKDSTYSLSSTLTLSKADYEKHKVYACEVTHQGLSSPVTKSFNRGEC
notes: 2-Fab TriNKET
As for B6, the EC50 in assay [3] came to 1.05 nM.

B7: Hu9.1-73-F3′ (bispecific antibody, human IgG1, kappa)
chain: DIQMTQSPSSLSASVGDRVTITCKSSQSLLYSSNQNNYLAWYQQKPGKAPKLLIYWAQHLDSGVPSRFSGSGSGTDFTLTISSLQPEDFATYYCQQYYTYPYTFGCGTKVEIKGGGGSGGGGSGGGGSGGGGSEVQLVESGGGLVQPGGSLRLSCAASGLPMAGFYTSWVRQAPGKCLEWVGFIRDKANGYTTEYNPSVKGRFTISADTSKNTAYLQMNSLRAEDTAVYYCAQVRRALDYWGQGTLVTVSSASDKTHTCPPCPAPELLGGPSVFLFPPKPKDTLMISRTPEVTCVVVDVSHEDPEVKFNWYVDGVEVHNAKTKPREEQYNSTYRVVSVLTVLHQDWLNGKEYKCKVSNKALPAPIEKTISKAKGQPREPRVYTLPPCRDELTKNQVSLTCLVKGFYPSDIAVEWESNGQPENNYKTTPPVLVSDGSFTLYSKLTVDKSRWQQGNVFSCSVMHEALHNHYTQKSLSLSPG
heavy: EVQLVESGGGLVKPGGSLRLSCAASGFTFSSYSMNWVRQAPGKGLEWVSSISSSSSYIYYADSVKGRFTISRDNAKNSLYLQMNSLRAEDTAVYYCARGAPIGAAAGWFDPWGQGTLVTVSSASTKGPSVFPLAPSSKSTSGGTAALGCLVKDYFPEPVTVSWNSGALTSGVHTFPAVLQSSGLYSLSSVVTVPSSSLGTQTYICNVNHKPSNTKVDKKVEPKSCDKTHTCPPCPAPELLGGPSVFLFPPKPKDTLMISRTPEVTCVVVDVSHEDPEVKFNWYVDGVEVHNAKTKPREEQYNSTYRVVSVLTVLHQDWLNGKEYKCKVSNKALPAPIEKTISKAKGQPREPQVCTLPPSRDELTENQVSLTCLVKGFYPSDIAVEWESNGQPENNYKTTPPVLDSDGSFFLYSWLTVDKSRWQQGNVFSCSVMHEALHNHYTQKSLSLSPG
light: DIQMTQSPSSVSASVGDRVTITCRASQGISSWLAWYQQKPGKAPKLLIYAASSLQSGVPSRFSGSGSGTDFTLTISSLQPEDFATYYCQQGVSFPRTFGGGTKVEIKRTVAAPSVFIFPPSDEQLKSGTASVVCLLNNFYPREAKVQWKVDNALQSGNSQESVTEQDSKDSTYSLSSTLTLSKADYEKHKVYACEVTHQGLSSPVTKSFNRGEC
notes: F3′ TriNKET; also called Hu9.1-73-F3′ TriNKET
Consider B7, for which the response in assay [3] was half-maximal at 0.765 nM (EC50).

B8: hCOH-2-F3′ (bispecific antibody, human IgG1, kappa)
chain: DIVLTQSPATLSLSPGERATLSCRASESVDNYGISFMNWFQQKPGQAPRLLIYAASNRATGIPARFSGSGSGTDFTLTISSLEPEDFAVYYCQQSKEVPWTFGCGTKVEIKGGGGSGGGGSGGGGSGGGGSEVQLQESGPGLVKPSQTLSLTCTVSGDSITSGYWNWIRQHPGKCLEYIGYISYSGSTYYNPSLKSRVTISRDTSKNQYSLKLSSVTAADTAVYYCASPNYPFYAMDYWGQGTLVTVSSASDKTHTCPPCPAPELLGGPSVFLFPPKPKDTLMISRTPEVTCVVVDVSHEDPEVKFNWYVDGVEVHNAKTKPREEQYNSTYRVVSVLTVLHQDWLNGKEYKCKVSNKALPAPIEKTISKAKGQPREPRVYTLPPCRDELTKNQVSLTCLVKGFYPSDIAVEWESNGQPENNYKTTPPVLVSDGSFTLYSKLTVDKSRWQQGNVFSCSVMHEALHNHYTQKSLSLSPG
heavy: EVQLVESGGGLVKPGGSLRLSCAASGFTFSSYSMNWVRQAPGKGLEWVSSISSSSSYIYYADSVKGRFTISRDNAKNSLYLQMNSLRAEDTAVYYCARGAPIGAAAGWFDPWGQGTLVTVSSASTKGPSVFPLAPSSKSTSGGTAALGCLVKDYFPEPVTVSWNSGALTSGVHTFPAVLQSSGLYSLSSVVTVPSSSLGTQTYICNVNHKPSNTKVDKKVEPKSCDKTHTCPPCPAPELLGGPSVFLFPPKPKDTLMISRTPEVTCVVVDVSHEDPEVKFNWYVDGVEVHNAKTKPREEQYNSTYRVVSVLTVLHQDWLNGKEYKCKVSNKALPAPIEKTISKAKGQPREPQVCTLPPSRDELTENQVSLTCLVKGFYPSDIAVEWESNGQPENNYKTTPPVLDSDGSFFLYSWLTVDKSRWQQGNVFSCSVMHEALHNHYTQKSLSLSPG
light: DIQMTQSPSSVSASVGDRVTITCRASQGISSWLAWYQQKPGKAPKLLIYAASSLQSGVPSRFSGSGSGTDFTLTISSLQPEDFATYYCQQGVSFPRTFGGGTKVEIKRTVAAPSVFIFPPSDEQLKSGTASVVCLLNNFYPREAKVQWKVDNALQSGNSQESVTEQDSKDSTYSLSSTLTLSKADYEKHKVYACEVTHQGLSSPVTKSFNRGEC
notes: F3′ TriNKET
The molecule B8 returned an EC50 in assay [3] of 0.893 nM.

B9: hCOH-2-mAb (antibody, V domains shown)
VH: EVQLQESGPGLVKPSQTLSLTCTVSGDSITSGYWNWIRQHPGKGLEYIGYISYSGSTYYNPSLKSRVTISRDTSKNQYSLKLSSVTAADTAVYYCASPNYPFYAMDYWGQGTLVTVSS
VL: DIVLTQSPATLSLSPGERATLSCRASESVDNYGISFMNWFQQKPGQAPRLLIYAASNRATGIPARFSGSGSGTDFTLTISSLEPEDFAVYYCQQSKEVPWTFGGGTKVEIK
notes: Parental monoclonal antibody; also called Humanized mAb hCOH-2
The molecule B9 gave an EC50 in assay [3] of 0.043 nM.
